Laboratory results reported in US20090264359A1, “FPLR-1 INHIBITORS FOR USE IN DISEASES INVOLVING AMYLOID-INDUCED INFLAMMATORY EVENTS (FLIPR AND FLIPR-LIKE) AND IMMUNECOMPLEX-[…] DISEASES” (published 2009).

Key:
[1] = molecular target: FPR on human neutrophils and monocytes (human, UniProt P21462); test: cell-based or functional assay
[2] = molecular target: FcγRs on human neutrophils and peripheral blood monocytes

B1: FLIPr-like (other)
chain: FFSYEWKGLEIAKNLADQAKKDDERADKLIKEADEKNEHYKGKTVEDLYVIAKKMGKGNTIAVVKIKDGGKNGYYTFDITRPLEEHRKNIPVVKNGEIDSITWY
modifications: FITC label in the flow cytometric binding assays (FLIPr-like-FITC); unlabelled elsewhere
Which results are given for B1?
FPR blocking activity (fMLF-induced activation of neutrophils) [1]: ~100 fold; minimal effective concentration in phagocytosis by human neutrophils [2]: 0.19 µg/mL
